Stoichiometry N data for 1 substance are collected here from article doi:10.1101/721969.

For this experiment, the target named is Ib-pore (heptameric translocation channel of Clostridium perfringens iota toxin component Ib, after (Clostridium perfringens)). Put plainly: cryo-EM structure.

With “Ib-pore (heptameric translocation channel of Clostridium perfringens iota toxin component Ib, after (natural protein)”, the stoichiometry N (as a rule, a count of units in the complex or per binding partner) came to 7.
